The values below come from IntAct's records for PubMed 25006247.

B1: Pyrin (Homo sapiens), O15553 (parent)
chain: MAKTPSDHLLSTLEELVPYDFEKFKFKLQNTSVQKEHSRIPRSQIQRARPVKMATLLVTYYGEEYAVQLTLQVLRAINQRLLAEELHRAAIQEYSTQENGTDDSAASSSLGENKPRSLKTPDHPEGNEGNGPRPYGGGAASLRCSQPEAGRGLSRKPLSKRREKASEGLDAQGKPRTRSPALPGGRSPGPCRALEGGQAEVRLRRNASSAGRLQGLAGGAPGQKECRPFEVYLPSGKMRPRSLEVTISTGEKAPANPEILLTLEEKTAANLDSATEPRARPTPDGGASADLKEGPGNPEHSVTGRPPDTAASPRCHAQEGDPVDGTCVRDSCSFPEAVSGHPQASGSRSPGCPRCQDSHERKSPGSLSPQPLPQCKRHLKQVQLLFCEDHDEPICLICSLSQEHQGHRVRPIEEVALEHKKKIQKQLEHLKKLRKSGEEQRSYGEEKAVSFLKQTEALKQRVQRKLEQVYYFLEQQEHFFVASLEDVGQMVGQIRKAYDTRVSQDIALLDALIGELEAKECQSEWELLQDIGDILHRAKTVPVPEKWTTPQEIKQKIQLLHQKSEFVEKSTKYFSETLRSEMEMFNVPELIGAQAHAVNVILDAETAYPNLIFSDDLKSVRLGNKWERLPDGPQRFDSCIIVLGSPSFLSGRRYWEVEVGDKTAWILGACKTSISRKGNMTLSPENGYWVVIMMKENEYQASSVPPTRLLIKEPPKRVGIFVDYRVGSISFYNVTARSHIYTFASCSFSGPLQPIFSPGTRDGGKNTAPLTICPVGGQGPD

Variants of B1 are the subject of the first experiment. The note with it: with asc_human PYCARD.
As to R80A, the “effect of a mutation on the interaction” value is on record as “decreasing interaction strength”.

H37A: the “effect of a mutation on the interaction” value is “with no effect”.

For V58A, the “effect of a mutation on the interaction” value is given as “increasing interaction strength”.

As to K25A, the “effect of a mutation on the interaction” value is “disrupting interaction strength”.

Take Q46A: the “effect of a mutation on the interaction” value is “with no effect”.

For E14A, the “effect of a mutation on the interaction” value is given as “decreasing interaction strength”.

For the variant R42W, the “effect of a mutation on the interaction” value is given as “decreasing interaction strength”.

R42A: the “effect of a mutation on the interaction” value is “decreasing interaction strength”.

Regarding L10A, the “effect of a mutation on the interaction” value was “decreasing interaction strength”.

Regarding K3A, the “effect of a mutation on the interaction” value is on record as “with no effect”.

In the case of E84A, the “effect of a mutation on the interaction” value is “with no effect”.

For E22A, the “effect of a mutation on the interaction” value is reported as “increasing interaction strength”.

On to R75A, for which the “effect of a mutation on the interaction” value is “decreasing interaction strength”.

As to K35A, the “effect of a mutation on the interaction” value is listed as “with no effect”.

In the case of R49A, the “effect of a mutation on the interaction” value is “with no effect”.

With A89T, the “effect of a mutation on the interaction” value is recorded as “with no effect”.

With L71A, the “effect of a mutation on the interaction” value is recorded as “decreasing interaction strength”.

Q29A: the “effect of a mutation on the interaction” value is listed as “with no effect”.

As for E63A, the “effect of a mutation on the interaction” value is “increasing interaction strength”.

Turning to R88A, the “effect of a mutation on the interaction” value is “with no effect”.

The variants in the next experiment derive from B1. The note with it: with asc_human PYCARD. The source holds these as a separate data set.
Turning to R42W, the “effect of a mutation on the interaction” value is given as “with no effect”.
